Results reported in article PMC6529640, “Bacterioferritin of Magnetospirillum gryphiswaldense Is a Heterotetraeicosameric Complex Composed of Functionally Distinct Subunits but Is Not Involved in Magnetite Biomineralization” (mBio, 2019).

Target: the molecule itself
Experiment: native gel or EMSA; BN-PAGE of purified proteins on polyacrylamide gradient gels, run at 4°C, Coomassie stained; Bfr2 and Bfr12 ~22 μM, Bfr1 ~30 μM in 50 mM Tris-HCl, 50 mM NaCl, pH 8.0, or Bfr12 dialysed against 50 mM imidazole-HCl, 50 mM NaCl, pH 7; for Bfr12 also a second dimension of SDS-PAGE (2D-BN/SDS-PAGE)

B1: Bfr1 of MSR-1 expressed alone from pET-51b-Bfr1 (natural protein, Magnetospirillum gryphiswaldense MSR-1, UniProt A0ACM8UIY5 1-159, looked up)
chain: MRGSPKVISVLNGLLTGELTAADQYFVHARMLENWGFKVLYERIEHERHDELDHAGLLINRILFLEGVPDVASRAALNIGSDVPKMMANDLAYELQVVDELKAAIALCESERDYDTRRILVHLLEETEQDHVRWLEVQVGLIDKLGLKNYLQSAAGEIA
notes: bacterioferritin subunit Bfr1, Magnetospirillum gryphiswaldense MSR-1, locus MSR1_27050; expressed without Bfr2
stoichiometry N: 3
